Measurements published in publication PMC13385800 (2026).

B1: TBLR1-LgBiT wild type [not stated] / SETD5-SmBiT [not stated] (parent complex)
chain 1: MSISSDEVNFLVYRYLQESGFSHSAFTFGIESHISQSNINGALVPPAALISIIQKGLQYVEAEVSINEDGTLFDGRPIESLSLIDAVMPDVVQTRQQAYRDKLAQQQAAAAAAAAAAASQQGSAKNGENTANGEENGAHTIANNHTDMMEVDGDVEIPPNKAVVLRGHESEVFICAWNPVSDLLASGSGDSTARIWNLSENSTSGSTQLVLRHCIREGGQDVPSNKDVTSLDWNSEGTLLATGSYDGFARIWTKDGNLASTLGQHKGPIFALKWNKKGNFILSAGVDKTTIIWDAHTGEAKQQFPFHSAPALDVDWQSNNTFASCSTDMCIHVCKLGQDRPIKTFQGHTNEVNAIKWDPTGNLLASCSDDMTLKIWSMKQDNCVHDLQAHNKEIYTIKWSPTGPGTNNPNANLMLASASFDSTVRLWDVDRGICIHTLTKHQEPVYSVAFSPDGRYLASGSFDKCVHIWNTQTGALVHSYRGTGGIFEVCWNAAGDKVGASASDGSVCVLDLRK
chain 2: MSIAIPLGVTTSDTSYSDMAAGSDPESVEASPAVNEKSVYSTHNYGTTQRHGCRGLPYATIIPRSDLNGLPSPVEERCGDSPNSEGETVPTWCPCGLSQDGFLLNCDKCRGMSRGKVIRLHRRKQDNISGGDSSATESWDEELSPSTVLYTATQHTPTSITLTVRRTKPKKRKKSPEKGRAAPKTKKIKNSPSEAQNLDENTTEGWENRIRLWTDQYEEAFTNQYSADVQNALEQHLHSSKEFVGKPTILDTINKTELACNNTVIGSQMQLQLGRVTRVQKHRKILRAARDLALDTLIIEYRGKVMLRQQFEVNGHFFKKPYPFVLFYSKFNGVEMCVDARTFGNDARFIRRSCTPNAEVRHMIADGMIHLCIYAVSAITKDAEVTIAFDYEYSNCNYKVDCACHKGNRNCPIQKRNPNATELPLLPPPPSLPTIGAETRRRKARRKELEMEQQNEASEENNDQQSQEVPEKVTVSSDHEEVDNPEEKPEEEKEEVIDDQENLAHSRRTREDRKVEAIMHAFENLEKRKKRRDQPLEQSNSDVEITTTTSETPVGEETKTEAPESEVSNSVSNVTIPSTPQSVGVNTRRSSQAGDIAAEKLVPKPPPAKPSRPRPKSRISRYRTSSAQRLKRQKQANAQQAELSQAALEEGGSNSLVTPTEAGSLDSSGENRPLTGSDPTVVSITGSHVNRAASKYPKTKKYLVTEWLNDKAEKQECPVECPLRITTDPTVLATTLNMLPGLIHSPLICTTPKHYIRFGSPFIPERRRRPLLPDGTFSSCKKRWIKQALEEGMTQTSSVPQETRTQHLYQSNENSSSSSICKDNADLLSPLKKWKSRYLMEQNVTKLLRPLSPVTPPPPNSGSKSPQLATPGSSHPGEEECRNGYSLMFSPVTSLTTASRCNTPLQFELCHRKDLDLAKVGYLDSNTNSCADRPSLLNSGHSDLAPHPSLGPTSETGFPSRSGDGHQTLVRNSDQAFRTEFNLMYAYSPLNAMPRADGLYRGSPLVGDRKPLHLDGGYCSPAEGFSSRYEHGLMKDLSRGSLSPGGERACEGVPSAPQNPPQRKKVSLLEYRKRKQEAKENSAGGGGDSAQSKSKSAGAGQGSSNSVSDTGAHGVQGSSARTPSSPHKKFSPSHSSMSHLEAVSPSDSRGTSSSHCRPQENISSRWMVPTSVERLREGGSIPKVLRSSVRVAQKGEPSPTWESNITEKDSDPADGEGPETLSSALSKGATVYSPSRYSYQLLQCDSPRTESQSLLQQSSSPFRGHPTQSPGYSYRTTALRPGNPPSHGSSESSLSSTSYSSPAHPVSTDSLAPFTGTPGYFSSQPHSGNSTGSNLPRRSCPSSAASPTLQGPSDSPTSDSVSQSSTGTLSSTSFPQNSRSSLPSDLRTISLPSAGQSAVYQASRVSAVSNSQHYPHRGSGGVHQYRLQPLQGSGVKTQTGLS

Variants of: B1
Assay: NanoLuc complementation assay; n = 6–7 independent transfections per TBLR1 mutant; read off a plot

Variant | ratio to parent
chain 1 MSISSDEVNFLVYRYLQESGFSHSAFTFGIESHISQSNINGALVPPAALISIIQKGLQYVEAEVSINEDGTLFDGRPIESLSLIDAVMPDVVQTRQQAYRDKLAQQQAAAAAAAAAAASQQGSAKNGENTANGEENGAHTIANNHTDMMEVDGDVEIPPNKAVVLRGHESEVFICAWNPVSDLLASGSGDSTARIWNLSENSTSGSTQLVLRHCIREGGQDVPSNKDVTSLDWNSEGTLLATGSYDGFARIWTKDGNLASTLGQHKGPIFALKWNKKGNFIPSAGVDKTTIIWDAHTGEAKQQFPFHSAPALDVDWQSNNTFASCSTDMCIHVCKLGQDRPIKTFQGHTNEVNAIKWDPTGNLLASCSDDMTLKIWSMKQDNCVHDLQAHNKEIYTIKWSPTGPGTNNPNANLMLASASFDSTVRLWDVDRGICIHTLTKHQEPVYSVAFSPDGRYLASGSFDKCVHIWNTQTGALVHSYRGTGGIFEVCWNAAGDKVGASASDGSVCVLDLRK [chain 1 L282P] | ~0.05
chain 1 MSISSDEVNFLVYRYLQESGFSHSAFTFGIESHISQSNINGALVPPAALISIIQKGLQYVEAEVSINEDGTLFDGRPIESLSLIDAVMPDVVQTRQQAYRDKLAQQQAAAAAAAAAAASQQGSAKNGENTANGEENGAHTIANNHTDMMEVDGDVEIPPNKAVVLRGHESEVFICAWNPVSDLLASGSGDSTARIWNLSENSTSGSTQLVLRHCIREGGQDVPSNKDVTSLDWNSEGTLLATGSCDGFARIWTKDGNLASTLGQHKGPIFALKWNKKGNFILSAGVDKTTIIWDAHTGEAKQQFPFHSAPALDVDWQSNNTFASCSTDMCIHVCKLGQDRPIKTFQGHTNEVNAIKWDPTGNLLASCSDDMTLKIWSMKQDNCVHDLQAHNKEIYTIKWSPTGPGTNNPNANLMLASASFDSTVRLWDVDRGICIHTLTKHQEPVYSVAFSPDGRYLASGSFDKCVHIWNTQTGALVHSYRGTGGIFEVCWNAAGDKVGASASDGSVCVLDLRK [chain 1 Y245C] | ~1.2
chain 1 MSISSDEVNFLVYRYLQESGFSHSAFTFGIESHISQSNINGALVPPAALISIIQKGLQYVEAEVSINEDGTLFDGRPIESLSLIDAVMPDVVQTRQQAYRDKLAQQQAAAAAAAAAAASQQGSAKNGENTANGEENGAHTIANNHTDMMEVDGDVEIPPNKAVVLRGHESEVFICAWNPVSDLLASGSGDSTARIWNLSENSTSGSTQLVLRHCIREGGQDVPSNKDVTSLDWNSEGTLLATGSYDGFARIWTKDGNLASTLGQHKGPIFALKWNKKGNFILSAGVDKTTIIWDAHTGEAKQQFPFHSAPALDVDWQSNNTFASCSTDMCIHVCKLGQDRPIKTFQGHTNEVNAIKWDPTGNLLASCSDDMTLKIWSMKQDNCVHDLQAHNKEIYTIKWSPTGPGTNNPNANLMLASASFDSTVRLWDVDRGICIHTLTKHQEPVYSVAFSPDGRYLASDSFDKCVHIWNTQTGALVHSYRGTGGIFEVCWNAAGDKVGASASDGSVCVLDLRK [chain 1 G460D] | ~0.07
chain 1 MSISSDEVNFLVYRYLQESGFSHSAFTFGIESHISQSNINGALVPPAALISIIQKGLQYVEAEVSINEDGTLFDGRPIESLSLIDAVMPDVVQTRQQAYRDKLAQQQAAAAAAAAAAASQQGSAKNGENTANGEENGAHTIANNHTDMMEVDGDVEIPPNKAVVLRGHESEVFICAWNPVSDLLASGSGDSTARIWNLSENSTSGSTQLVLRHCIREGGQDVPSNKDVTSLDWNSEGTLLATGSYDGFARIWTKDGNLASTLGQHKGPIFALKWNKKGNFILSAGVDKTTIIWDAHTGEAKQQFPFHSAPALDVDWQSNNTFASCSTDMCIHVCKLGQDRPIKTFQGHTNEVNAIKWDPTGNLLASCSDNMTLKIWSMKQDNCVHDLQAHNKEIYTIKWSPTGPGTNNPNANLMLASASFDSTVRLWDVDRGICIHTLTKHQEPVYSVAFSPDGRYLASGSFDKCVHIWNTQTGALVHSYRGTGGIFEVCWNAAGDKVGASASDGSVCVLDLRK [chain 1 D370N] | ~0.05

Variants of: B1
Assay: co-immunoprecipitation, mass spectrometry; TBLR1-null Flp-In T-REx 293 cells; n = 3 independent transfections; read off a plot

Variant | screen value [log2]
chain 1 MSISSDEVNFLVYRYLQESGFSHSAFTFGIESHISQSNINGALVPPAALISIIQKGLQYVEAEVSINEDGTLFDGRPIESLSLIDAVMPDVVQTRQQAYRDKLAQQQAAAAAAAAAAASQQGSAKNGENTANGEENGAHTIANNHTDMMEVDGDVEIPPNKAVVLRGHESEVFICAWNPVSDLLASGSGDSTARIWNLSENSTSGSTQLVLRHCIREGGQDVPSNKDVTSLDWNSEGTLLATGSYDGFARIWTKDGNLASTLGQHKGPIFALKWNKKGNFILSAGVDKTTIIWDAHTGEAKQQFPFHSAPALDVDWQSNNTFASCSTDMCIHVCKLGQDRPIKTFQGHTNEVNAIKWDPTGNLLASCSDNMTLKIWSMKQDNCVHDLQAHNKEIYTIKWSPTGPGTNNPNANLMLASASFDSTVRLWDVDRGICIHTLTKHQEPVYSVAFSPDGRYLASGSFDKCVHIWNTQTGALVHSYRGTGGIFEVCWNAAGDKVGASASDGSVCVLDLRK [chain 1 D370N] | ~6.9
